Data as given in IntAct's records for PubMed 15350535.

Biological target: PAK1, Q13153-2
Sequence (Q13153 other isoform, or with tags, fused parts or gaps): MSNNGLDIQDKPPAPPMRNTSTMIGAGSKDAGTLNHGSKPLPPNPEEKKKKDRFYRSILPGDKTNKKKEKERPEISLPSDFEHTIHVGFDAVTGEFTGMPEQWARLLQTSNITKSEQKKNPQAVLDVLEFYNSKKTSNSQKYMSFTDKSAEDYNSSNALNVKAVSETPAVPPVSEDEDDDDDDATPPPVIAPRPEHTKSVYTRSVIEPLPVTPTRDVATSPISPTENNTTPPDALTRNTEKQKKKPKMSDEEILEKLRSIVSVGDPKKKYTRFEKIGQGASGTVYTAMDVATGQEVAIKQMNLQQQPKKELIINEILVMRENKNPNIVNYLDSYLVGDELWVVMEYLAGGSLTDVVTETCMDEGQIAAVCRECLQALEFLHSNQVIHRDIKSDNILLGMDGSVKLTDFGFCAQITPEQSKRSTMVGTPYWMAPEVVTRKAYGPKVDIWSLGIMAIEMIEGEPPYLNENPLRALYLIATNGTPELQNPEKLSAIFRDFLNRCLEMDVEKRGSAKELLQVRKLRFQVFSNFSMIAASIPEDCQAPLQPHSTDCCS

effect of a mutation on the interaction: decreasing interaction
Substance: Rho-related GTP-binding protein RhoU (Homo sapiens), Q7L0Q8 T63N
